The target in experiment [1] is T1, His-tagged HM1.24 antigen, residues N49-A163 of the extracellular domain (UniProt Q10589 49-163).
T1 chain: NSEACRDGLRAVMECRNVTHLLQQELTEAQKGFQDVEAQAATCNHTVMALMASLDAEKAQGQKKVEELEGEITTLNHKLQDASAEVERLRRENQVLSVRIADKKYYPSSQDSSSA
The experiment can be described thus: Biacore. A general note: Surface plasmon resonance follows binding to a sensor surface in real time, without labels.

The target of experiment [2] is T2, Human HM1.24 on RPMI 8226 multiple myeloma cells (UniProt Q10589 1-161).
T2 chain: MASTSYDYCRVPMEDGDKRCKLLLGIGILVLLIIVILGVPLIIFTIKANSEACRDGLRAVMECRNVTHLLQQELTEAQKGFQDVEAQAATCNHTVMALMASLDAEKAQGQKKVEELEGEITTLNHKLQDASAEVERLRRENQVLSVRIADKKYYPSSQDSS
The experiment can be described thus: flow cytometry. A general note: In flow cytometry, cells or beads pass a laser one at a time.

Experiment [3] has as its target T1, His-tagged HM1.24 antigen, residues …. Put plainly: Biacore.
The target is the same in experiment [4]. Put plainly: Biacore.
The target is the same in experiment [5]. The experiment can be described thus: Biacore.

Changes are numbered by the printed parent chain. Names and notes keep the numbering of the source. Like-named read-outs stand apart in the source and are kept apart here.

B1: H0L0_IgG1_S239D/I332E (antibody, V domains shown)
VH: QVQLQQSGAELARPGASVKLSCKASGYTFTPYWMQWVKQRPGQGLEWIGSIFPGDGDTRYSQKFKGKATLTADKSSSTAYMQLSILAFEDSAVYYCARGLRRGGYYFDYWGQGTTLTVSS
VL: DIVMTQSHKFMSTSVGDRVSITCKASQDVNTAVAWYQQKPGQSPKLLIYSASNRYTGVPDRITGSGSGTDFTFTISSVQAEDLALYYCQQHYSTPFTFGSGTKLEIK
For the molecule B1, the Kd in experiment [1] worked out at 0.0637 nM; in experiment [3] it was 0.0522 nM. In experiment [2], this molecule displayed an EC50 of 2.22 nM.

B2: HM1.24_H0L0_IgG1_WT (antibody, V domains shown)
VH: B1 VH
VL: DIVMTQSHKFMSTSVGDRVSITCKASQDVNTAVAWYQQKPGQSPKLLIYSASNRYTGVPDRITGSGSGTDFTFTISSVQAEDLALYYCQQHYSTPFTFGSGTKLEIKR
For the molecule B2, the Kd in experiment [1] turned out to be 0.0537 nM; in experiment [3] it was 0.0511 nM. In experiment [2], the EC50 is 2.46 nM.

B3: HM1.24_H2L2 (antibody, V domains shown)
VH: EVQLVESGGGLVKPGGSLRLSCAASGYTFTPYWMQWVRQAPGKGLEWMGSIFPGDGDTRYSQSFQGQVTISADKSISTAYMELSSLRSEDTAVYYCARGLRRGGYYFDYWGQGTLVTVSS
VL: DIVMTQSPSSLSASVGDRVTITCQASQDVNTAVAWYQQKPDQSPKLLIYSASNRYTGVPDRITGSGSGTDFTLTISSLQAEDVAVYYCQQHYSTPFTFGSGTKLEIKR
In experiment [2], B3 returned an EC50 of 5.83 nM.

B4: H2L3_Hybrid_S239D/I332E (antibody, V domains shown)
VH: B3 VH
VL: B3 VL with S9P, S10T, A13L, V15P, D17E, I21L, T22S, Q24R, A80P, V83F
As for B4, in experiment [2], the EC50 turned out to be 13.1 nM.

B5: HM1.24_H1.2 heavy chain variant with HM1.24_L4 light chain (antibody, V domains shown)
VH: QVQLVQSGAEVKKPGASVKVSCKASGYTFTPYWMQWVRQAPGQGLEWMGSIFPGSGDTRYSQSFQGQVTISADKSISTAYMELSRLRSDDTAVYYCARGLRRGGYYFDYWGQGTLVTVSS
VL: DIVMTQSPLSLPVTLGQPASISCKASQDVNTAVAWYLQKPGKSPKLLIYSASNRYTGVPDRITGSGSGTDFTLKISRVEAEDVGVYYCQQHYSTPFTFGSGTKLEIKR
As to B5, the koff in experiment [4] came to 0.0023 s⁻¹; in experiment [5], 0.00203 s⁻¹. For the same molecule, the Kd in experiment [1] was 0.0711 nM; in experiment [3] it was 0.062 nM.

B6: HM1.24_H2.4 heavy chain variant with HM1.24_L4 light chain (antibody, V domains shown)
VH: B3 VH with G56A
VL: B5 VL
As for B6, the koff in experiment [4] was determined as 0.0029 s⁻¹; in experiment [5], 0.004 s⁻¹.

B7: HM1.24_H2.3 heavy chain variant with HM1.24_L4 light chain (antibody, V domains shown)
VH: B3 VH with G56S
VL: B5 VL
As to B7, the koff in experiment [4] turned out to be 0.00327 s⁻¹; in experiment [5], 0.00374 s⁻¹.

B8: HM1.24_H1.4_L2_Hybrid_S239D/I332E (antibody, V domains shown)
VH: B5 VH with S55D, G56A
VL: B3 VL
For B8, the koff in experiment [4] was determined as 0.00274 s⁻¹; in experiment [5] it was 0.00352 s⁻¹.

B9: H1L3_Hybrid_S239D/I332E (antibody, V domains shown)
VH: B5 VH with S55D
VL: B3 VL with S9P, S10T, A13L, V15P, D17E, I21L, T22S, Q24R, A80P, V83F
With B9, the EC50 in experiment [2] stood at 3.26 nM.

B10: HM1.24_H1.1_L2_Hybrid_S239D/I332E (antibody, V domains shown)
VH: B5 VH with S55E
VL: B3 VL
As for B10, the figures for the koff in experiment [4] and in experiment [5] were 0.00206 s⁻¹ and 0.0032 s⁻¹, respectively.

B11: HM1.24_H1.3_L2_Hybrid_S239D/I332E (antibody, V domains shown)
VH: B5 VH with S55D, G56S
VL: B3 VL
Turning to B11, the values for the dissociation rate constant (koff) in experiment [4] and in experiment [5] were 0.00279 s⁻¹ and 0.003 s⁻¹, respectively.

B12: HM1.24_H1.3 heavy chain variant with HM1.24_L4 light chain (antibody, V domains shown)
VH: B5 VH with S55D, G56S
VL: B5 VL
Take B12: the results for the dissociation rate constant (koff) in experiment [4] and in experiment [5] were 0.00229 s⁻¹ and 0.00261 s⁻¹, respectively.

B13: HM1.24_H2.1 heavy chain variant with HM1.24_L4 light chain (antibody, V domains shown)
VH: B3 VH with D55E
VL: B5 VL
With B13, the koff in experiment [4] turned out to be 0.00218 s⁻¹; in experiment [5] it was 0.00266 s⁻¹.

B14: HM1.24_H1.4 heavy chain variant with HM1.24_L4 light chain (antibody, V domains shown)
VH: B5 VH with S55D, G56A
VL: B5 VL
For B14, the koff in experiment [4] and in experiment [5] was 0.00298 s⁻¹ in each case.

B15: HM1.24_H1.1 heavy chain variant with HM1.24_L4 light chain (antibody, V domains shown)
VH: B5 VH with S55E
VL: B5 VL
With B15, the koff is 0.00201 s⁻¹ in experiment [4] and 0.00251 s⁻¹ in experiment [5].

B16: HM1.24_H1L4 (antibody, V domains shown)
VH: B5 VH with S55D
VL: B5 VL
As to B16, the koff was 0.00243 s⁻¹ in experiment [4] and 0.00352 s⁻¹ in experiment [5]. For the same molecule, the Kd was 0.0572 nM in experiment [1] and 0.0381 nM in experiment [3]. This molecule also gave a half-maximal effective concentration (EC50) in experiment [2] of 1.89 nM.

B17: HM1.24_H2L4 (antibody, V domains shown)
VH: B3 VH
VL: B5 VL
As for B17, the figures for the koff in experiment [4] and in experiment [5] were 0.00299 s⁻¹ and 0.00418 s⁻¹, respectively. The molecule also showed an EC50 in experiment [2] of 3.55 nM.

B18: HM1.24_H1.2_L2_Hybrid_S239D/I332E (antibody, V domains shown)
VH: B5 VH
VL: B3 VL
Consider B18, for which the koff turned out to be 0.0039 s⁻¹ in experiment [4] and 0.00371 s⁻¹ in experiment [5].

B19: HM1.24_H1L2 (antibody, V domains shown)
VH: B5 VH with S55D
VL: B3 VL
B19: the koff in experiment [4] is 0.00241 s⁻¹; in experiment [5], 0.00318 s⁻¹. Further, the Kd in experiment [1] was found to be 0.0574 nM; in experiment [3], 0.0269 nM. In addition, the EC50 in experiment [2] was found to be 2.52 nM.

The Kd is the concentration at which binding is half-saturated. Low readings indicate tighter binding, high ones weaker binding. What is called EC50 is the concentration needed to bring the measured effect to its halfway point. In general, koff refers to a measure of how fast the partners let go of each other. A higher koff goes with fast dissociation.
